Here are results for one molecule from US20220056139A1.

For the assay, the target named is HLA-DR (human). Nature of the assay: flow cytometry on Raji cells, APC mouse anti-human IgG (FIG. 21B).

B1: huLym-1-B antibody (antibody, human IgG1, V domains shown)
VH: EVQLVESGGGLVQPGRSLRLTCTASGFSLTSYGVHWVRQPPGKGLEWLAVIWSDGSTTYNSALKSRLTISKDNSKSQVYLQMNSLRAEDTAVYYCARHYGSTLAFASWGQGTLVTVSS
VL: DIQMTQSPSSLSASVGDRVTITCRASVNIYSYLAWYQQKPGKAPNLLIYNAKILAEGVPSRFSGSGSGTDFTLTISSLQPEDFASYYCQHHYGTFTFGQGTKVEIK
On to B1, for which the fold higher ED50 than chLym-1 is 2 fold.
